B1: LRRK2 RocCOR tandem domain (LexA-BD bait, wild type) [human] / itself (parent complex)
chain: KAVPYNRMKLMIVGNTGSGKTTLLQQLMKTKKSDLGMQSATVGIDVKDWPIQIRDKRKRDLVLNVWDFAGREEFYSTHPHFMTQRALYLAVYDLSKGQAEVDAMKPWLFNIKARASSSPVILVGTHLDVSDEKQRKACMSKITKELLNKRGFPAIRDYHFVNATEESDALAKLRKTIINESLNFKIRDQLVVGQLIPDCYVELEKIILSERKNVPIEFPVIDRKRLLQLVRENQLQLDENELPHAVHFLNESGVLLHFQDPALQLSDLYFVEPKWLCKIMAQILTVKVEGCPKHPKGIISRRDVEKFLSKKRKFPKNYMSQYFKLLEKFQIALPIGEEYLLVPSSLSDHRPVIELPHCENSEIIIRLYEMPYFPMGFWSRLINRLLEISPYMLSGRERALRPNRMYWRQGIYL

The assay covers variants of B1. The experiment in a line: quantitative yeast two-hybrid (Q-YTH); n = 6; read off a plot.
On to KAVPYNRMKLMIVGNTGSGKTTLLQQLMKTKKSDLGMQSATVGIDVKDWPIQIRDKRKRDLVLNVWDFAGREEFYSTHPHFMTQRALYLAVYDLSKGQAEVDAMKPWLFNIKARASSSPVILVGTHLDVSDEKQRKACMSKITKELLNKRGFPAIRDYHFVNADEESDALAKLRKTIINESLNFKIRDQLVVGQLIPDCYVELEKIILSERKNVPIEFPVIDRKRLLQLVRENQLQLDENELPHAVHFLNESGVLLHFQDPALQLSDLYFVEPKWLCKIMAQILTVKVEGCPKHPKGIISRRDVEKFLSKKRKFPKNYMSQYFKLLEKFQIALPIGEEYLLVPSSLSDHRPVIELPHCENSEIIIRLYEMPYFPMGFWSRLINRLLEISPYMLSGRERALRPNRMYWRQGIYL [chain 1 T164D], for which the percent of parent was around 98%.

Consider KAVPYNRMKLMIVGNTGSGKTTLLQQLMKTKKSDLGMQSATVGIDVKDWPIQIRDKRKRDLVLNVWDFAGREEFYSTHPHFMTQRALYLAVYDLSKGQAEVDAMKPWLFNIKARASSSPVILVGTHLDVSDEKQRKACMSKITKELLNKRGFPAIRDYHFVNAAEESDALAKLRKTIINESLNFKIRDQLVVGQLIPDCYVELEKIILSERKNVPIEFPVIDRKRLLQLVRENQLQLDENELPHAVHFLNESGVLLHFQDPALQLSDLYFVEPKWLCKIMAQILTVKVEGCPKHPKGIISRRDVEKFLSKKRKFPKNYMSQYFKLLEKFQIALPIGEEYLLVPSSLSDHRPVIELPHCENSEIIIRLYEMPYFPMGFWSRLINRLLEISPYMLSGRERALRPNRMYWRQGIYL [chain 1 T164A], for which the percent of parent is around 110%. As for KAVPYNRMKLMIVGNDGSGKTTLLQQLMKTKKSDLGMQSATVGIDVKDWPIQIRDKRKRDLVLNVWDFAGREEFYSTHPHFMTQRALYLAVYDLSKGQAEVDAMKPWLFNIKARASSSPVILVGTHLDVSDEKQRKACMSKITKELLNKRGFPAIRDYHFVNATEESDALAKLRKTIINESLNFKIRDQLVVGQLIPDCYVELEKIILSERKNVPIEFPVIDRKRLLQLVRENQLQLDENELPHAVHFLNESGVLLHFQDPALQLSDLYFVEPKWLCKIMAQILTVKVEGCPKHPKGIISRRDVEKFLSKKRKFPKNYMSQYFKLLEKFQIALPIGEEYLLVPSSLSDHRPVIELPHCENSEIIIRLYEMPYFPMGFWSRLINRLLEISPYMLSGRERALRPNRMYWRQGIYL [chain 1 T16D], the percent of parent was around 97%. Regarding KAVPYNRMKLMIVGNAGSGKTTLLQQLMKTKKSDLGMQSATVGIDVKDWPIQIRDKRKRDLVLNVWDFAGREEFYSTHPHFMTQRALYLAVYDLSKGQAEVDAMKPWLFNIKARASSSPVILVGTHLDVSDEKQRKACMSKITKELLNKRGFPAIRDYHFVNATEESDALAKLRKTIINESLNFKIRDQLVVGQLIPDCYVELEKIILSERKNVPIEFPVIDRKRLLQLVRENQLQLDENELPHAVHFLNESGVLLHFQDPALQLSDLYFVEPKWLCKIMAQILTVKVEGCPKHPKGIISRRDVEKFLSKKRKFPKNYMSQYFKLLEKFQIALPIGEEYLLVPSSLSDHRPVIELPHCENSEIIIRLYEMPYFPMGFWSRLINRLLEISPYMLSGRERALRPNRMYWRQGIYL [chain 1 T16A], the percent of parent is around 93%.

(Values after publication PMC3887213 (2013).)
